Reference: publication PMC11695638
Values joined by “and” are separate entries in the source; they are usually repeats but may differ in a detail not shown here. Identical values can stand only once.

Legend:
[1] = biological target: asialoglycoprotein receptor 1 (ASGR1, P01) (UniProt P07306); assay: SPR; Biacore T200, 25°C, HBS-EP+ with 8 mM CaCl2; LRP-1 (approx. 1300 RU), ASGR1 (approx. 1500 RU) and MRC1 (approx. 13,000 RU) amine-coupled to parallel flow cells of CM5; Metalyse (88, 53, 32 μg/mL) and Mingfule (53, 32, 19 μg/mL) injected at 30 μL/min for 240 s, 150 s dissociation; sensorgram comparison gives a similarity score
[2] = biological target: mannose receptor C, type 1 (MRC1) (UniProt P22897); assay: as above
Chain of UniProt P22897 (P22897 19-1389): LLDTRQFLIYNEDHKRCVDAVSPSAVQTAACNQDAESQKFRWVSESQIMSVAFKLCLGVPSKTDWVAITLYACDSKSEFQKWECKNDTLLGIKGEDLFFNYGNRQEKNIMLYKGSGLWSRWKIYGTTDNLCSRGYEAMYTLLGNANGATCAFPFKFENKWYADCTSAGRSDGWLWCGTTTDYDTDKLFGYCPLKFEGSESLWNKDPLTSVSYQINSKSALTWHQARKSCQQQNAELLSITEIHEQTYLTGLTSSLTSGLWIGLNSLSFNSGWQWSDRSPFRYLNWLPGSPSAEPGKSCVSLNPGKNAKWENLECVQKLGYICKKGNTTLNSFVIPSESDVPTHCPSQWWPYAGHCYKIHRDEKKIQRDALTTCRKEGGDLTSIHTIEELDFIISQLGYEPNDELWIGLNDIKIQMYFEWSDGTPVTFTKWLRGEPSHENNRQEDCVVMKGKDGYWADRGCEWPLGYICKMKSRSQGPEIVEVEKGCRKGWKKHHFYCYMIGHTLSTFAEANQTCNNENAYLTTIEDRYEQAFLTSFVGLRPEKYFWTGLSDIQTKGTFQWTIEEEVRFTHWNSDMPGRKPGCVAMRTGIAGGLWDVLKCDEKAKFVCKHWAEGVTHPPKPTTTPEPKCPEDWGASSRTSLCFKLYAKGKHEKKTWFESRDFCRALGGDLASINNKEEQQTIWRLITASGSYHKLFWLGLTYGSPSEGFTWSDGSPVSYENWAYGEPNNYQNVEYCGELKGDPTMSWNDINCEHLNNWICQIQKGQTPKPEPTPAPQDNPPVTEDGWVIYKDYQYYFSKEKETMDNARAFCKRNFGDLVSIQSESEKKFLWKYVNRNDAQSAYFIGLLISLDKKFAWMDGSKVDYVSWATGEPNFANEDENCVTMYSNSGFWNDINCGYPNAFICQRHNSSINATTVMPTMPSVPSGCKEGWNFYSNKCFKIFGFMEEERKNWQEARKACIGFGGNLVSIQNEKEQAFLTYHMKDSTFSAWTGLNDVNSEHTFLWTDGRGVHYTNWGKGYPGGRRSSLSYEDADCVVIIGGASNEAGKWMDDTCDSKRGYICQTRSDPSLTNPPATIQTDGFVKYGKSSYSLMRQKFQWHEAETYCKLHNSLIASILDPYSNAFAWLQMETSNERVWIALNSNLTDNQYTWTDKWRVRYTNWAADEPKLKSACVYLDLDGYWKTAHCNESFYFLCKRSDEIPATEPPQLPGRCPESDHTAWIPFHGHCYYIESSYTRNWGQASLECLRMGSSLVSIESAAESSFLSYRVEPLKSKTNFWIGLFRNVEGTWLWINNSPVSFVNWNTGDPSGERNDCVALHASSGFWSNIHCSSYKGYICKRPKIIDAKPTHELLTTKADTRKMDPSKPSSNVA

[3] = biological target: recombinant low-density lipoprotein receptor-related protein 1 (LRP-1) Cluster IV; assay: as above
[4] = biological target: fibrin (immobilised human plasma fibrinogen cross-linked on the chip with thrombin and coagulation factor XIII) (human) (UniProt P02671); assay: SPR; Biacore T200, 25°C, HBS-EP+; fibrinogen amine-coupled to CM5 (aim 12,000 RU) and cross-linked with thrombin and factor XIII; tenecteplase injected at 2, 3 and 4 μg/mL, 5 μL/min, 120 s contact and 120 s dissociation; sensorgram comparison against a corridor (average ± 3 SD, normalised) of three Metalyse lots gives a similarity score
Chain of UniProt P02671 (P02671 36-866, chain 1 of 3): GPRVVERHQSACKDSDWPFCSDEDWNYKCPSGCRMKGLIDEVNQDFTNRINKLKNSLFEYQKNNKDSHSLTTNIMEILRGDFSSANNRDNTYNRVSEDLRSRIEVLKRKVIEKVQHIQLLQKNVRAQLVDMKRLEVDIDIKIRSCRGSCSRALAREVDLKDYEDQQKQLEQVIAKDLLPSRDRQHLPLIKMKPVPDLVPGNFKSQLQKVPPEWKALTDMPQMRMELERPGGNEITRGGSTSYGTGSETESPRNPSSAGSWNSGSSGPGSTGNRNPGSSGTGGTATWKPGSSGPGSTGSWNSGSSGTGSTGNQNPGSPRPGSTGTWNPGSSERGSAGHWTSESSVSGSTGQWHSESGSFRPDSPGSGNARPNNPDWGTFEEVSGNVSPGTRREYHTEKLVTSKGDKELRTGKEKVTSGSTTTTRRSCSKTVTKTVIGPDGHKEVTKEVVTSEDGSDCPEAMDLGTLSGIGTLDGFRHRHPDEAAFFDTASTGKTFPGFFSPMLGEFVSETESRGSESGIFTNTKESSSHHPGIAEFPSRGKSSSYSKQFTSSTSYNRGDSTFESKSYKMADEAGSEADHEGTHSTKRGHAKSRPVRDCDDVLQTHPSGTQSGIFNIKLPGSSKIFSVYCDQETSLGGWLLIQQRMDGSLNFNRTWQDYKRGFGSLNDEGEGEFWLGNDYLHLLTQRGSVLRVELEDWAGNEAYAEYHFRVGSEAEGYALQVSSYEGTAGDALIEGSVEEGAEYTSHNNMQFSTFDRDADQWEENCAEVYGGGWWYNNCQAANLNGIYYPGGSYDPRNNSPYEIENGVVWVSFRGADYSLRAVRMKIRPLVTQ
Chain of UniProt P02671 (P02675 45-491, chain 2 of 3, further chain): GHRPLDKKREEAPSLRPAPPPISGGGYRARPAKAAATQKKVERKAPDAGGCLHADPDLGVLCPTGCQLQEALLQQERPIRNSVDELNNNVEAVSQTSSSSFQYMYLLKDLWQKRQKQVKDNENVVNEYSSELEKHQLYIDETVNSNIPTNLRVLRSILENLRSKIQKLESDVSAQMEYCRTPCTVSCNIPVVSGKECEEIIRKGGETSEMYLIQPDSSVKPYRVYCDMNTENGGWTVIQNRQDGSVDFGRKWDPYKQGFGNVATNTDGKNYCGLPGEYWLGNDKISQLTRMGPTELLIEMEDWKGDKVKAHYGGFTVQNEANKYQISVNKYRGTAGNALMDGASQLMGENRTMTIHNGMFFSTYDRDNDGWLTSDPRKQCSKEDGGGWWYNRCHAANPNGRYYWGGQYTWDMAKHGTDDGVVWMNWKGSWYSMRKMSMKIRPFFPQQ
Chain of UniProt P02671 (P02679 27-453, chain 3 of 3, further chain): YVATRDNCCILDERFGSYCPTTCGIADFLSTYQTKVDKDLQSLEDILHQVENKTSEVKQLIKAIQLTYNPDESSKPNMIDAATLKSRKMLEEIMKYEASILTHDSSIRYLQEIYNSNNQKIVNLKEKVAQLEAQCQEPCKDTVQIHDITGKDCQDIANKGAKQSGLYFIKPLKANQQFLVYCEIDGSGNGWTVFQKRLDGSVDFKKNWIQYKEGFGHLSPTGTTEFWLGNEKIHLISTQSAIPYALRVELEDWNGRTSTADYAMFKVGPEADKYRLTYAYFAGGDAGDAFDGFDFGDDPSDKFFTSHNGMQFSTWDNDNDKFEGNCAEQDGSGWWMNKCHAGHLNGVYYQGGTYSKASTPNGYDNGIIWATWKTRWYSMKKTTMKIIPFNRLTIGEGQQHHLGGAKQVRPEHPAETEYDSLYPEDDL

similarity score to Metalyse (SPR sensorgram comparison) [1]: 5% and 6% and 9%
similarity score to Metalyse (SPR sensorgram comparison) [2]: 8% and 9% and 10%
similarity score to Metalyse (SPR sensorgram comparison) [3]: 30% and 17% and 25%
similarity score to Metalyse (SPR sensorgram comparison) [4]: 53% and 37% and 46%
Substance: tenecteplase copy Mingfule 16 mg/vial (CSPC Recomgen Pharmaceutical, Guangzhou, Co., Ltd.) (enzyme)
